Substitutions are numbered along the chain they refer to. “And” between values parts separate entries of the source, which are not always exact repeats. Equal entries are not always repeated.
B1: anti-PSMA antibody PSGD6 (antibody, V domains shown)
VH: QVQLVQSGGGLVQPGGSLRLSCAASGFTFSSYWMSWVRQAPGKGLEWVANIKQDGSEKYYVDSVKGRFTISRDNAKNSLYLQMNSLRAEDTAVYYCARVWDYYYDSSGDAFDIWGQGTMVTVSS
VL: DIVMTQSPSSVSASVGDRVTITCRASQAISSWLAWYQQKPGKAPKLLIYAASSLQSGVPSRFSGSGSGTDFTLTISSLQPEDFATYYCQQAYSFPVTFGPGTKVDIK
notes: Fully human IgG
B2: anti-PSMA antibody PSGG6 (antibody, V domains shown)
VH: B1 VH
VL: EIVLTQSPSSLSASVGDRVTITCRASQGISSYLAWYQQKPGKAPKLLIYAASTLQSGVPSRFSGSGSGTDFTLTISSLQPEDFATYYCQQLNSYPRGITFGQGTKLEIK
notes: Fully human IgG
B3: anti-PSMA antibody PSGC12 (antibody, V domains shown)
VH: B1 VH
VL: DIVMTQSPSSVSASVGDRVTITCRASQDVGTWLAWYQQKPGRAPKLLIYVASSLQSGVPSRFSGSGSGTDFTLTISSLQPEDSATYYCQQAKGIPYTFGQGTKLEIK
notes: Fully human IgG
B4: anti-PSMA antibody PSGC9 (antibody, V domains shown)
VH: B1 VH
VL: AIRMTQSPSTLSASVGDRVTITCRASQNIYGWLAWYQQKPGKAPELLIYAASSLQSGVPSRFSGSGSGTDFTLTINSLQPEDFATYYCQQSYTIPFTFGPGTKVDIK
notes: Fully human IgG
B5: anti-PSMA antibody PSGD3 (antibody, V domains shown)
VH: B1 VH
VL: DIVMTQSPSSVSASVGDRVTITCRASQDINNWLAWYQQKAGKAPKLLIYVATKLQNGVPSRFSGSGSGTDFTLSISNLQPEDFATYYCQQAKSFPYTFGQGTKLEIK
notes: Fully human IgG
B6: anti-PSMA antibody PSGC8 (antibody, V domains shown)
VH: B1 VH
VL: AIRMTQSPSSVSASVGDRVTITCRASQGISSWLAWYQQKPGKAPKLLIYAASSLQSGVPSRFSGSGSGTDFTLTISSLKPEDFATYYCQQANSFPRALTFGGGTKVEIK
notes: Fully human IgG
B7: anti-PSMA antibody PSGB11 (antibody, V domains shown)
VH: B1 VH
VL: EIVLTQSPSTLSASVGDRVTITCRASQSISSWLAWYQQKPGKAPRLLIYAASILQRGVPSRFSGSGSETDFTLTISSLQPEDLATYYCQETYSNLFTFGPGTKVDIK
notes: Fully human IgG
B8: anti-PSMA antibody PSGD4 (antibody, V domains shown)
VH: B1 VH
VL: B1 VL with V11L, T20S, A28G, S31T, K45D, S53N, Y92N, V96L, P100G, D105E
notes: Fully human IgG
B9: anti-PSMA antibody PSGH8 (antibody, V domains shown)
VH: B1 VH
VL: B1 VL with V11L, A28G, S76N, Y92S, S93G, V96F
notes: Fully human IgG
B10: anti-PSMA antibody PSA11 (antibody, V domains shown)
VH: B1 VH
VL: B1 VL with D1V, V3W, A28G, S53N, Y92N, V96L, P100G
notes: Fully human IgG (detected with anti-human IgG, gamma-chain specific)
B11: anti-PSMA antibody PSGB12 (antibody, V domains shown)
VH: B1 VH
VL: DVVMTQSPSTLSASVGDRVTITCRASQSISSWLAWYQQKPGKAPKLLIFAASSLQSGVPSRFSGSGSGTDFALTISSLQPEDFATYYCQESYSIPWTFGQGTKVEIK
notes: Fully human IgG
B12: anti-PSMA antibody PSGH3 (antibody, V domains shown)
VH: B1 VH
VL: B1 VL with A28G, S31N, A50V, Y92N, V96I, P100Q, K103R, V104L, D105E
notes: Fully human IgG
B13: anti-PSMA antibody PSGF9 (antibody, V domains shown)
VH: B1 VH
VL: B1 VL with D1A, V3Q, A28G, F83I, Q90E, A91S, F94T, V96F
notes: Fully human IgG
B14: anti-PSMA antibody PSGE10 (antibody, V domains shown)
VH: B1 VH
VL: DVVMTQSPSSVSASVGDRVTITCRASQGISSWLAWYQQKPGKAPKLLIYAASTLQSGVPSRFSGSGSGTDFTLTINNLQPEDFATYYCQQTASFPINFGGGTKVEIK
notes: Fully human IgG

Legend:
[1] = target: T1, endogenous human PSMA (prostate-specific membrane antigen) expressed on LNCaP human prostate cancer cells (human, UniProt Q04609 1-750); test: flow cytometry on LNCaP cells
T1 construct: whole, on cells; also called PSMA-expressing LNCaP cells
T1 sequence (Q04609 whole entry): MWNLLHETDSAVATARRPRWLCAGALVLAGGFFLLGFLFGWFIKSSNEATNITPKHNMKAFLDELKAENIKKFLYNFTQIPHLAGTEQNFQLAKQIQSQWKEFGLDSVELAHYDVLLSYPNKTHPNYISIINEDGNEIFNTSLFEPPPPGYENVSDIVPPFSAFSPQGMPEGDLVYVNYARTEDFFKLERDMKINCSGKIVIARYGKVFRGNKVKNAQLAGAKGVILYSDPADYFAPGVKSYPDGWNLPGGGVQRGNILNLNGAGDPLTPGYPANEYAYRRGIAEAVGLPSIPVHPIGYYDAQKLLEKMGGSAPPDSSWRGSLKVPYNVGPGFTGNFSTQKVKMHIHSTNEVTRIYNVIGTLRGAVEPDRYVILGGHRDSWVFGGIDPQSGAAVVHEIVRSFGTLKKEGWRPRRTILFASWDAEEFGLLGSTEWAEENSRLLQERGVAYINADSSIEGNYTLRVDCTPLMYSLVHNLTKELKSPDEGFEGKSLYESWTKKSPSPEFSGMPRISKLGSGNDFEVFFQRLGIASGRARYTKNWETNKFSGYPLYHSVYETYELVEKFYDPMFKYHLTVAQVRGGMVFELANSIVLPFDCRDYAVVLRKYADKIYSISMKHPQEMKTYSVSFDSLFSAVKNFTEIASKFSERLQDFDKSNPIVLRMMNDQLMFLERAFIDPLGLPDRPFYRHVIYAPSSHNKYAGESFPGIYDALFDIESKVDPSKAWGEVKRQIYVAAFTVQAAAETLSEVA
Experimental: PSMA expressing LNCaP cells were harvested with enzyme-free Cell Dissociation Buffer (GIBCO) and transferred to V-Bottom 96 well-plates (50,000 cells/well). Cells were incubated on ice for 45 min with serial dilutions of anti-PSMA antibodies PSGB11, PSGB12, PSGC12, PSGD4, PSGD6 and PSA11 in FACS buffer (PBS+ 2% FBS)+NaN₃. […] After 1 wash in FACS buffer, a 1:1000 dilution of Phycoerythrin conjugated anti-Human IgG (γ-chain specific) was added and incubated for 30 min Following a final wash, fluorescence intensity was measured on an Intellicyt High Throughput Flow Cytometer (HTFC).
Data were analyzed using Graphpad Prism software and non-linear regression fit. Data points are shown as the median fluorescence intensity (MFI) of positively labeled cells +/−Standard Error. EC₅₀ values are reported as the concentration of antibody to achieve 50% of maximal PSMA antibodies binding to PSMA expressing cells.

[2] = target: T1, endogenous human PSMA …; test: cell-based or functional assay
[3] = target: T2, recombinant human PSMA/His (human, UniProt Q04609 44-750); test: BLI (Octet), antibody amine-coupled to AR2G sensor, PSMA/His in solution, 1:1 model; FIG. 4, second antibody (PSGB11; printed as PSA11)
T2 construct: not shown: His tag
T2 sequence (Q04609 44-750 limits assumed): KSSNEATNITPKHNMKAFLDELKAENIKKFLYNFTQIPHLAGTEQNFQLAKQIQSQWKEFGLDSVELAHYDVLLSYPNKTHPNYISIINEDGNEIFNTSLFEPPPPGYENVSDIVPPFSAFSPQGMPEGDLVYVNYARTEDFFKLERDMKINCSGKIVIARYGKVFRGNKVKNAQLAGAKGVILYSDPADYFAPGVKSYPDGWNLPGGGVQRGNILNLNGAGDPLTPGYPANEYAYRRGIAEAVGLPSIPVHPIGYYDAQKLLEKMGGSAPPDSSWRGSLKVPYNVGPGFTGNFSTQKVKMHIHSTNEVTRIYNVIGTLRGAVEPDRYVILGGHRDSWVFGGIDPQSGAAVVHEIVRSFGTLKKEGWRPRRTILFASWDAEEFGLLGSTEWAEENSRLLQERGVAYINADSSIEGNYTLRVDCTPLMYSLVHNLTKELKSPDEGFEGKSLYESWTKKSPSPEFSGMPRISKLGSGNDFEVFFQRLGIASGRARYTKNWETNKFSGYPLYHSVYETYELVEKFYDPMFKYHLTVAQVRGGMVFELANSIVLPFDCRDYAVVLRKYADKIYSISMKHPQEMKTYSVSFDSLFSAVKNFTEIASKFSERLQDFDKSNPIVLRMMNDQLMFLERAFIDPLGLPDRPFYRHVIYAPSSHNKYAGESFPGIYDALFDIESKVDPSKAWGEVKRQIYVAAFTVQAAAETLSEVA
Experimental: (§1) Specifically, an amine Reactive Second-Generation (AR2G) sensor was coated with antibody (15 ug/ml in acetic buffer, pH5.0) using Sulfo-N-hydroxysuccinimide/N-Ethyl-N′-(3-dimethylaminopropyl)carbodiimide hydrochloride (Sulfo-NHS/EDC) coupling methodology. The sensors were quenched with 1M pH 8.5 ethanolamine Data was collected by moving sensors to serially diluted recombinant human PSMA/His (in PBS buffer) wells, then the data was dissociated by transferring the sensors to PBS wells. A 1:1 binding model was used to fit the data.

[4] = target: T2, recombinant human PSMA/His; test: Octet biolayer interferometry, antibody amine-coupled to AR2G sensor, recombinant human PSMA/His in solution at 2.15 to 68.8 nM, global 1:1 fit (same value in all 6 rows)
Experimental: as §1

[5] = target: T2, recombinant human PSMA/His; test: Octet biolayer interferometry, antibody amine-coupled to AR2G sensor, recombinant human PSMA/His in solution at 2.15 to 68.8 nM, global 1:1 fit; column headed kdis(1/s) (same value in all 6 rows)
Experimental: as §1

[6] = target: T2, recombinant human PSMA/His; test: Octet biolayer interferometry, antibody amine-coupled to AR2G sensor, recombinant human PSMA/His in solution at 0.75 to 48.1 nM, global 1:1 fit; column headed kdis(1/s) (same value in all 7 rows)
Experimental: as §1

[7] = target: T2, recombinant human PSMA/His; test: Octet biolayer interferometry, antibody amine-coupled to AR2G sensor, recombinant human PSMA/His in solution at 0.75 to 48.1 nM, global 1:1 fit (same value in all 7 rows)
Experimental: as §1

[8] = target: T2, recombinant human PSMA/His; test: BLI (Octet), antibody amine-coupled to AR2G sensor, PSMA/His in solution, 1:1 model; FIG. 3, antibody PSA11
Experimental: as §1

Binder	EC50 [1]	Cell killing, 2-hours-wash method (IC50, nM); antibody pre-complexed with Protein G-MMAF, LNCaP cells, Cell Titer Glo [2] [nM]	Cell killing, No wash method (IC50, nM); antibody pre-complexed with Protein G-MMAF, LNCaP cells, Cell Titer Glo [2] [nM]	also measured
B1	1.92 nM	1.13	0.04	–
B2	1.3 nM	–	–	–
B3	2.84 nM	–	–	–
B4	2.05 nM	1.22	0.06	–
B5	3.15 nM	2.24	0.12	–
B6	3.84 nM	–	–	–
B7	1.98 nM and 1.83 nM	1.6	0.04	Kd [3]: ~0.68 nM; Kd [4]: 0.677 nM; kon [4]: 97000 M⁻¹ s⁻¹; koff [5]: 6.57e-05 s⁻¹
B8	1.59 nM	2.09	0.06	–
B9	2.13 nM	–	–	–
B10	2.4 nM	1.55	0.08	koff [6]: 6e-05 s⁻¹; Kd [7]: 0.681 nM; kon [7]: 88100 M⁻¹ s⁻¹; Kd [8]: ~0.67 nM
B11	3.46 nM	1.66	0.05	–
B12	3.72 nM	1.51	0.06	–
B13	2.08 nM	1.33	0.13	–
B14	1.92 nM	1.58	0.08	–
